This is an account of results in publication PMC5421877, “SOCS3 inhibits the pathological effects of IL-22 in non-melanoma skin tumor-derived keratinocytes” (Oncotarget, 2017).

The assay relates to STAT3 phosphorylation in BCC and SCC lines. Kind of assay: phospho-STAT3 levels in transformed keratinocyte lines (IL-22). It counts as cell-based. The conditions noted are these: BCC (n = 2) and SCC (n = 5) lines vs healthy strains (n = 5), IL-22 time course. The procedure: Figure 4 SOCS3 and SOCS1 are poorly expressed in the epidermis of NMSC lesions and are not induced in transformed keratinocytes by IL-22 (A) Immunohistochemistry for SOCS3 and SOCS1 (red staining) was performed respectively on frozen or paraffin-embedded sections from biopsies of healthy skin (i), NLS (ii, iii) and LS (iv, v) areas of BCC and SCC, specimens. Psoriatic skin biopsies were also analyzed (vi). Sections were counterstained with Mayer's H&E and were visually evaluated by an pathologist experienced in dermatology. One out of four representative staining is shown. Scale bars, […]. (B) Graphs show SOCS3 and SOCS1 mRNA levels which were detected by real-time PCR analysis in cultured SCC (CAL27 and CAL33) and BCC (M77015) skin tumor lines left untreated or stimulated with IL-22 or IFN-γ for 3 h and normalized for β-actin mRNA expression levels. All data were obtained from three independent experiments. […] SOCS1 was detected by IP using a specific anti-SOCS1 Ab, whereas SOCS3 by WB with an anti-SOCS3 Ab. […] Densitometric intensity (D.I.) of SOCS1 or SOCS3/β-actin was calculated from three independent experiments and numerically expressed as D. I. Ratio. *p < 0.01; **p < 0.05. […] SOCS3 and phospho-Tyr STAT3 levels were detected by WB and normalized to β-actin levels. […]

B1: IL-22: cytokine stimulus, R&D Systems (protein, UniProt Q9GZX6 34-179, looked up)
Interleukin-22: APISSHCRLDKSNFQQPYITNRTFMLAKEASLADNNTDVRLIGEKLFHGVSMSERCYLMKQVLNFTLEEVLFPQSDRFQPYMQEVVPFLARLSNRLSTCHIEGDDLHIQRNVQKLKDTVKKLGESGEIKAIGELDLLFMSLRNACI
Turning to B1, the phospho-STAT3 levels entry was “higher compared to healthy cells, and showed a long-lasting activation”.
